The values below come from patent US7790697B2, “Compositions and methods for inhibiting the synthesis or expression of MMP-1” (Trustees of Dartmouth College, priority 2004, dated 2010).

In one data set the test system is MMP-9 mRNA. The data set is described as follows: Specificity qRT-PCR, MMP-9 mRNA in stable MDA-231 cells. The class given is cell-based, human. To be noted: stable MDA-231 cell lines, 24 hour serum-free; group average ± S.D.; P=0.1 vs empty vector. An excerpt: RNA Isolation and Real-Time RT-PCR. […] Real-Time PCR Primer Sequences. […] ID NO:7; MMP-1 reverse [NT] ID NO:8; MMP-2 forward [NT] ID NO:9; MMP-2 reverse [NT] ID NO:10; MMP-9 forward [NT] ID NO:11; MMP-9 reverse [NT] ID NO:12; MMP-13 forward [NT], SEQ ID NO:13; MMP-13 reverse [NT] ID NO:14; MMP-14 forward [NT] ID NO:15; MMP-14 reverse [NT] ID NO:16; GAPDH forward [NT] ID NO:17; GAPDH reverse [NT] ID NO:18; eGFP forward [NT] ID NO:19; eGFP reverse [NT] ID NO:20. Real-Time PCR Standards.
In general terms: Quantitative PCR measures a nucleic acid by following its amplification.

The next data set has as its system MDA-231 cells. The data set is described as follows: Cell proliferation assay (MTT). The class given is cell-based. To be noted: from 24 to 48 hours (in 24 hours); p=0.13 vs empty vector. The method, then:
Cell Proliferation Assay. The proliferation rate of the stably transfected MDA-231 cell lines at 24 and 48 hours was determined with a MTT assay as described in the manufacturer's protocol (ATCC). The optimum cell count was 10,000 cells per well of a 96-well tissue culture dish.
Therefore, the only measured differences between the two groups of cell lines were the levels of MMP-1 mRNA and protein.

In data set [1] the test system is MDA-231 cells in type I collagen gel. The data set can be described thus: In vitro collagen gel destruction assay. The class given is cell-based. To be noted: MDA-231 cells producing the shRNA. As to the method: In vitro Collagen Gel Destruction Assay. Collagen preparations were carried out on ice to prevent premature jelling. A solution of purified type I bovine collagen (Cohesion Technologies, Palo Alto, Calif.) was neutralized with a sterile 10× phosphate-buffered saline (pH 7.4), and 0.1 M NaOH. The solution of neutralized collagen (2 mg/mL) was mixed with an equivalent volume of cells suspended in serum free DMEM to yield a final concentration of 2×10^5 cells/mL in 1 mg/mL fibrillar collagen, and 1 mL of the collagen/cell mixture was added to each well of a six-well plate. After approximately 1 hour, the collagen jelled, and 1 mL of serum-free media was added on top of the gel. For some experiments, 25 μM ILOMASTAT® (CHEMICON®, Temecula, Calif.), 50 U/mL aprotinin (Sigma, St. Louis, Mo.), 1 μg/mL neutralizing MMP-1 antibody (MMP-1 ab-5; ONCOGENE™ Research Products, San Diego, Calif.), 1 μg/mL monoclonal FLAG® antibody (Sigma, St. Louis, Mo.), or 1% DMSO were added to the collagen before it jelled. After 36 hours of incubation at 37° C. the medium was removed from the top of collagen gels and weighed. The weight of media added at the start of the 37° C. incubation (1 gram) was subtracted from the total media weights to reveal the amount of media liberated by collagen gel destruction.
An in vitro collagen destruction assay was developed to determine whether the MMP-1 levels in MDA-231 cells with the empty vector were functionally capable of degrading a collagen matrix, and whether the shRNA-mediated reduction in MMP-1 was sufficient to change the invasive behavior of the cells. MDA-231 cells harboring either the empty vector or the MMP-1 shRNA were embedded in a solution of type I collagen (1 mL). The collagen was allowed to solidify at 37° C., and 1 mL of serum-free medium was layered on top of each gel. After 36 hours at 37° C., the medium was removed from each well and photographs were taken. No collagen was visible in wells containing MDA-231 cells with the empty vector. […] The medium removed from each well was weighed to quantitate the amount of medium liberated as the gel was destroyed. After 36 hours, approximately 1 mL (0.8±0.06 grams) of medium was liberated from the collagen gels containing the MDA-231 cells with the empty vector. […] Conversely, no medium (−0.01±0.03 grams) was liberated from collagen gels containing MDA-231 cells producing the MMP-1 shRNA. The slight decrease in the volume of medium recovered may be due to evaporation of the medium during the incubation period.

For a further data set, the system named is MMP-1 protein. The data set is described as follows: Western blot of MMP-1 protein in culture medium. The class given is cell-based, human. As to conditions: MDA-231 cells producing the shRNA; 24 hours. The method, then:
Western Blot Analysis. MDA-231 cells were cultured in 1 mL serum-free DMEM/F12 medium in six-well plates in the presence or absence of a collagen gel, with or without aprotinin (50 U/mL; Sigma, St. Louis, Mo.). After 24 hours, medium was harvested, proteins precipitated with cold 10% trichloroacetic acid, and resuspended in 50 μL SDS loading buffer (PROMEGA®, Madison, Wis.). Following SDS-PAGE and transfer to a PVDF membrane (IMMOBILON™-P; MILLIPORE™, Bedford, Mass.), the membrane was incubated in a 5% milk, Tris-buffered saline solution with 0.1% TWEEN™ (milk TBST) for 1 hour. The membrane was probed with a MMP-1 polyclonal antibody (CHEMICON®, Temecula, Calif.) diluted 1:5000 in milk TBST overnight at 4° C. The membrane was washed three times with TBST, and a 1:2000 dilution of goat anti-rabbit horseradish peroxidase (HRP) conjugated antibody (CELL SIGNALING TECHNOLOGY®, Beverly, Mass.) in milk TBST was added for 60 minutes. The blot was washed three times with TBST, and HRP activity was detected with the WESTERN LIGHTNING® chemiluminescence reagent according to the manufacturer's instructions (PERKINELMER®, Boston, Mass.).
The three MMPs primarily responsible for degrading type 1 collagen are MMP-1, MMP-13, and the membrane bound MT1-MMP (Stamenkovic (2003) J. Pathol. 200:448-64). […]
On the technique in general: A western blot detects proteins with antibodies after separation by electrophoresis.

B1: MMP-1 shRNA: Vector-expressed small hairpin RNA, SEQ ID NO:1 (sense) and SEQ ID NO:2 (antisense), specific to bases 234-252 of MMP-1 mRNA (nucleic acid)
sense: GATCCCCACCAGATGCTGAAACCCTGTTCAAGAGACAGGGTTTCAGCATCTGGTTTTTTGGAAA
antisense: AGCTTTTCCAAAAAACCAGATGCTGAAACCCTGTCTCTTGAACAGGGTTTCAGCATCTGGTGGG
modifications: the letters are possibly those of the target site
Regarding B1, the “MMP-9 mRNA level” value in the data set on MMP-9 mRNA is 197.3 ± 106 copies of the target gene/pg GAPDH. Besides, in the data set on MDA-231 cells, the “fold increase in metabolic activity” value was found to be 2.03±0.06 fold. In data set [1] (36 hours), the “appearance of collagen gel” value is given as “appeared to be intact”. Further, the “medium liberated from collagen gels” value in data set [1] (36 hours at 37° C.) is reported as −0.01±0.03 grams. The collagen gel destruction result in data set [1] (as long as five days) is reported as “no collagen gel destruction”. In the data set with MMP-1 protein, the “MMP-1 protein in medium (western blot)” value is listed as “No detectable MMP-1 protein”.
